# Laboratory results taken from US10464978B2, “Peptides and combination of peptides for use in immunotherapy against ovarian cancer and other cancers” (immatics biotechnologies GmbH, priority 2015, dated 2019).
# Target: HLA-A*02:01 (Homo sapiens, UniProt P04439, D140Y/D185E/D98H/E176V/E277Q/G131W/G231S/I119V/I121R/I166T/I218V/L300P/L318F/N151K/N90K/P208A/P217A/Q86G/Q94H/R138H/R169H/T345S)
# Assay: MHC binding assay: UV-ligand exchange with beta2m ELISA (peptide exchange yield)
# Details: binding to HLA-A*02:01
# Excerpt: Candidate peptides for T cell based therapies according to the present invention were further tested for their MHC binding capacity (affinity). The individual peptide-MHC complexes were produced by UV-ligand exchange, where a UV-sensitive peptide is cleaved upon UV-irradiation, and exchanged with the peptide of interest as analyzed. Only peptide candidates that can effectively bind and stabilize the peptide-receptive MHC molecules prevent dissociation of the MHC complexes. To determine the yield of the exchange reaction, an ELISA was performed based on the detection of the light chain ([…]) of stabilized MHC complexes. The assay was performed as generally described in Rodenko et al. (Rodenko et al., 2006).
# 96 well MAXISorp plates (NUNC) were coated over night with 2 ug/ml streptavidin in PBS at room temperature, washed 4× and blocked for 1 h at 37° C. in 2% BSA containing blocking buffer. […] Peptide-MHC monomers of the UV-exchange reaction were diluted 100 fold in blocking buffer. Samples were incubated for 1h at 37° C., washed four times, incubated with 2 ug/ml HRP conjugated anti-β2m for 1h at 37° C., washed again and detected with TMB solution that is stopped with […]. Absorption was measured at 450 nm. Candidate peptides that show a high exchange yield (preferably higher than 50%, most preferred higher than 75%) are generally preferred for a generation and production of antibodies or fragments thereof, and/or T cell receptors or fragments thereof, as they show sufficient avidity to the MHC molecules and prevent dissociation of the MHC complexes.
row,"Peptide exchange (MHC class I binding score, peptide exchange yield)",Substance
1,“+++” (≥50 = +++),297 (VLADIELAQA; listed as Homo sapiens) [compound 297]
2,“++++” (≥75% = ++++),349 (SLTEYLQNV; listed as Homo sapiens) [compound 349]
3,“+++” (≥50 = +++),334 (TLTKVLVAL; listed as Homo sapiens) [compound 334]
4,“+++” (≥50 = +++),464 (ALNDCIYSV; listed as Homo sapiens) [compound 464]
5,“+++” (≥50 = +++),240 (ILLEQAFYL; listed as Homo sapiens) [compound 240]
6,“+++” (≥50 = +++),298 (VMITKLVEV; listed as Homo sapiens) [compound 298]
7,“++” (≥20% = ++),516 (AVGPASILKEV; listed as Homo sapiens) [compound 516]
8,“+++” (≥50 = +++),366 (RLLDMGETDLML; listed as Homo sapiens) [compound 366]
9,“+++” (≥50 = +++),331 (KVDTVWVNV; listed as Homo sapiens) [compound 331]
10,“+++” (≥50 = +++),564 (TVTNAVVTV; listed as Homo sapiens) [compound 564]
11,“+++” (≥50 = +++),586 (KLKPGDLVGV; listed as Homo sapiens) [compound 586]
12,“+++” (≥50 = +++),190 (FLSSLTETI; listed as Homo sapiens) [compound 190]
13,“++” (≥20% = ++),204 (KIAENVEEV; listed as Homo sapiens) [compound 204]
14,“+++” (≥50 = +++),295 (VLDRESPNV; listed as Homo sapiens) [compound 295]
15,“+++” (≥50 = +++),173 (LLDSASAGLYL; listed as Homo sapiens) [compound 173]
16,“+++” (≥50 = +++),101 (ILVGGGALATV; listed as Homo sapiens) [compound 101]
17,“+++” (≥50 = +++),600 (ALAAPDIVPAL; listed as Homo sapiens) [compound 600]
18,“+++” (≥50 = +++),25 (FLPDEPYIKV; listed as Homo sapiens) [compound 25]
19,“+++” (≥50 = +++),16 (VLFQGQASL; listed as Homo sapiens) [compound 16]
20,“++” (≥20% = ++),570 (ALANQIPTV; listed as Homo sapiens) [compound 570]
21,“+++” (≥50 = +++),555 (YVLEGLKSV; listed as Homo sapiens) [compound 555]

row,"Peptide exchange (MHC class I binding score, peptide exchange yield)",Substance
1,“+++” (≥50 = +++),187 (RQISIRGIVGV; listed as Homo sapiens) [compound 187]
2,“++++” (≥75% = ++++),89 (YILPTETIYV; listed as Homo sapiens) [compound 89]
3,“+++” (≥50 = +++),370 (SLLQDLVSV; listed as Homo sapiens) [compound 370]
4,“+++” (≥50 = +++),407 (YLMDLINFL; listed as Homo sapiens) [compound 407]
5,“+++” (≥50 = +++),307 (ALPVSLPQI; listed as Homo sapiens) [compound 307]
6,“+++” (≥50 = +++),595 (VLLSIYPRV; listed as Homo sapiens) [compound 595]
7,“+++” (≥50 = +++),107 (FLQPVDDTQHL; listed as Homo sapiens) [compound 107]
8,“++” (≥20% = ++),128 (YLFDDPLSAV; listed as Homo sapiens) [compound 128]
9,“+++” (≥50 = +++),560 (ALWDIETGQQTTT; listed as Homo sapiens) [compound 560]
10,“+++” (≥50 = +++),327 (GLAPFTEGISFV; listed as Homo sapiens) [compound 327]
11,“+++” (≥50 = +++),244 (SLFGGTEITI; listed as Homo sapiens) [compound 244]
12,“+++” (≥50 = +++),343 (SLLEVNEESTV; listed as Homo sapiens) [compound 343]
13,“+++” (≥50 = +++),484 (SLIEKVTQL; listed as Homo sapiens) [compound 484]
14,“+++” (≥50 = +++),309 (GLFDGVPTTA; listed as Homo sapiens) [compound 309]
15,“+++” (≥50 = +++),280 (VLPDPEVLEAV; listed as Homo sapiens) [compound 280]
16,“+++” (≥50 = +++),476 (ALMERTGYSMV; listed as Homo sapiens) [compound 476]
17,“+++” (≥50 = +++),539 (ALFDAQAQV; listed as Homo sapiens) [compound 539]
18,“+++” (≥50 = +++),255 (VLASYNLTV; listed as Homo sapiens) [compound 255]
19,“+++” (≥50 = +++),530 (VMYADIGGMDI; listed as Homo sapiens) [compound 530]
20,“+++” (≥50 = +++),508 (ILAQEQLVVGV; listed as Homo sapiens) [compound 508]
21,“++++” (≥75% = ++++),347 (SLFKHDPAAWEA; listed as Homo sapiens) [compound 347]

row,"Peptide exchange (MHC class I binding score, peptide exchange yield)",Substance
1,“+++” (≥50 = +++),474 (YLDPALELGPRNV; listed as Homo sapiens) [compound 474]
2,“++” (≥20% = ++),377 (FLLDSSASV; listed as Homo sapiens) [compound 377]
3,“+++” (≥50 = +++),125 (VQIHQVAQV; listed as Homo sapiens) [compound 125]
4,“+++” (≥50 = +++),607 (RLYSGISGLEL; listed as Homo sapiens) [compound 607]
5,“+++” (≥50 = +++),359 (YLLPESVDL; listed as Homo sapiens) [compound 359]
6,“++++” (≥75% = ++++),168 (KILDADIQL; listed as Homo sapiens) [compound 168]
7,“+++” (≥50 = +++),286 (YLFPGIPEL; listed as Homo sapiens) [compound 286]
8,“++” (≥20% = ++),548 (ALWENPESGEL; listed as Homo sapiens) [compound 548]
9,“+++” (≥50 = +++),164 (ALLPQPKNLTV; listed as Homo sapiens) [compound 164]
10,“+++” (≥50 = +++),75 (GLLEVMVNL; listed as Homo sapiens) [compound 75]
11,“+++” (≥50 = +++),281 (ILRESTEEL; listed as Homo sapiens) [compound 281]
12,“+++” (≥50 = +++),478 (YLLHEKLNL; listed as Homo sapiens) [compound 478]
13,“++” (≥20% = ++),99 (ALVSKGLATV; listed as Homo sapiens) [compound 99]
14,“++” (≥20% = ++),615 (VLPPDTDPA; listed as Homo sapiens) [compound 615]
15,“+++” (≥50 = +++),500 (SLMEDQVLQL; listed as Homo sapiens) [compound 500]
16,“+++” (≥50 = +++),472 (KLLEVSDDPQV; listed as Homo sapiens) [compound 472]
17,“++++” (≥75% = ++++),337 (HLLSELEAAPYL; listed as Homo sapiens) [compound 337]
18,“++” (≥20% = ++),231 (FLSPQQPPLLL; listed as Homo sapiens) [compound 231]
19,“++” (≥20% = ++),447 (QLVPALAKV; listed as Homo sapiens) [compound 447]
